Measured values: paper PMC4479705 (mBio, 2015)

Columns and labels:
[1] = target: recombinant factor H binding protein (FHbp) ID 1 (Neisseria meningitidis) (UniProt Q9JXV4); test: SPR
[2] = target: recombinant factor H binding protein (FHbp) ID 1 (Neisseria meningitidis serogroup B …, UniProt Q9JXV4); test: SPR
Chain of recombinant factor H binding protein (FHbp) ID 1 (Q9JXV4 20-274): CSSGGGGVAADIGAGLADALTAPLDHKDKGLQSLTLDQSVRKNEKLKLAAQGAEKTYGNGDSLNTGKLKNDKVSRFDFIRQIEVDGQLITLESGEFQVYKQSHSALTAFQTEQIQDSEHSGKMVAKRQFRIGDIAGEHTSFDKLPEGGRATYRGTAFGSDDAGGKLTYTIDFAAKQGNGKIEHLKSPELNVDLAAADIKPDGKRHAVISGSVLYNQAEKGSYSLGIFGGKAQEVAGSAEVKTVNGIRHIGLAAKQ

Chain of recombinant factor H binding protein (FHbp) ID 1 (Neisseria meningitidis) (Q9JXV4 20-274): as above

Binder	Kd [1]	Kd [2]	koff [2]	kon [2]
human anti-FHbp Fab 7B (Fab, V domains shown) VH: QVQLVQSGPEVKKPGASVKISCKTSGYTFTTNALYWVRQAPGQRPEWVGWLNTGNGNSKTSQNFQGRVTITRDTSASSTYMELSSLTFEDTAVYFCARRPSGDYNTYYFDFWGQGTLVTVSS VL: EIVMTQSPGTLSLSPGGRGTLSCRASESVSSSYISWYQHKSGQAPRLLIYGASSRATGIPDRFSGSGSGTDFTLTISRLEPEDFAVYYRQYFSGSKGLTFGPGTKVDIK	22.9 nM	–	–	–
human anti-FHbp Fab 4B (Fab, V domains shown) VH: EVQLVESGGGLAQPGGSLRLSCVASGSTFGSYAIYWVRQAPGKGLEWVSGISGSGTKIDYADSVKGRFTISRDISKNTLYLQMNSLRAEDTAVYYCAKLGFFDYWGQGTQVTVSS VL: EIVLTQSPDTLSLSPGERATLSCRASQSVSTYLFWYQKKPGQAPRLLIFDASNRATGIPVRFSGSGSGTDFTLTISSLEPEDFAVYYCQQRSNWPQTFGGGTKVEIK	–	0.86 nM	0.0006 s⁻¹	720000 M⁻¹ s⁻¹
human anti-FHbp Fab 2A (Fab, V domains shown) VH: QVQLQQSGSGLVKPSQTLSLTCTVSGGSINIGDRYWSWLRQSPGKGLEWIGYIDYSGDTYYNSSLKSRAAISIDTSNKQFSLKLSSVTAADTAVYYCARGSSDFSSGYFFDYWGQGTLVTVSS VL: ETTLTQSPATLSVSPGERAILSCRDSQSVSSNLAWYQQKPGQAPRLLIFGASTRATGIPARFSGSGSGTEFTLTISSLQSEDFAVYYCQQYNNWLSFGQGTKLEIK	–	115 nM	0.061 s⁻¹	530000 M⁻¹ s⁻¹
human anti-FHbp Fab 6B (Fab, V domains shown) VH: EVQLVESGGGLVQPGGSLRLSCAASGFTFSSYAMSWVRQAPGKGLEWVSAISGSGGSSHYTDSVKGRFTISRDNSKNTLWLQMNSLRAEDTAIYYCAKTSGSYYYHYEIDVWGQGTTVTVSS VL: EIVLTQSPGTLSLSPGERATLSCRASQSVSSSYLAWYQQKPGQAPRLLIYGTSNRATGIPDRFSGSGSGTDFTLTVSRLEPEDFAVYYCQQYGSSPCSFGQGTKLELK	–	0.82 nM	0.0004 s⁻¹	500000 M⁻¹ s⁻¹
human anti-FHbp Fab 10C (Fab, V domains shown) VH: QVQLVESGGGVVQPGRSLRLSCPASGFTFSRYALHWVRQAPGKGLEWVAVISFDGSFKYYADSVKGRFSISRDNFKNTLYLQMNSLRAEDTAVYYCAKDDTLHASGWGGFDYWGQGALVTVSS VL: EIVLTQSPATLSLSPGERATLSCRASQSVTSYLTWYQHKPGQAPRLLIYHTSYRATGIPARFSGSGSGTDFTLSITSLEPEDFAVYYCQQRSNWPFTFGPGTKVDIK	–	0.68 nM	0.0005 s⁻¹	930000 M⁻¹ s⁻¹
human anti-FHbp Fab 8A (Fab, V domains shown) VH: QVQLVESGGGLVQPGGSLRLSCVTSGFTFRSYAMTWVRQAPGKGLEWVSSISHSGGSTKYADSVKGRLTISRDDSMDTLYLQMNSLRAEDTAIYYCAKDQISYPAASPLDYWGRGTLVTVSS VL: EIVLTQSPGTLSLSPGERATLSCRASQSFSSFSLAWYQQKPGQAPRLLIYAPSNRATGIADRFSGSGSGTDFTLTISRLEPEDFAVYYCQQYGSSPITFGQGTRLEIK	–	1.04 nM	0.002 s⁻¹	2.3e+06 M⁻¹ s⁻¹
human anti-FHbp Fab 9B (Fab, V domains shown) VH: EVQLVQSGAELKKPGESLKISCKASGYTFTNYWVVWVRQMPGEGLEWMGSIHPRDSDARYSLSFEGRVTFSVDKSTTTAYLQWSSLKVSDSAIYYCARLSQVSGWSPWVGPWGQGTLVTVSS VL: DIVMTQSPSSLSASVGDRVTITCRASQSISVSLNWYQQKPGKAPKVLIYAASRLQSGIPSRFSGSGSGSHFTLTISSLQPEDFATYYCQETYSDLMYTFGQGTKVEIK	–	0.019 nM	4e-05 s⁻¹	1.85e+06 M⁻¹ s⁻¹
human anti-FHbp Fab 3C (Fab, V domains shown) VH: QVQLQESGPGLVKPSETLSLTCTVSGYSITRGYYWGWIRQPPGKGLEWIGGIYHSGTTYQNPSLRSRVTFSVDTSKNQFSLKLRSVTAADTAVYYCARDNYSSNLDYWGQGTMVTVSS VL: EIVLTQSPGTLSLSPGERATLSCRASQSVSSSYLAWYQQKAGQAPRLLIYGASSRATGIPERFSGSGSGTDFTLTISRLEPEDFAIYYCQQYGSSRFIFGPGTKVDIK	–	130 nM	0.0032 s⁻¹	30000 M⁻¹ s⁻¹
control chimeric human-mouse anti-FHbp Fab 502 (Fab, V domains shown) VH: EVQLQESGPGLAKPSQTLSLTCSVTGYSITSDFWNWIRKFPGNKLEYMGYISYSGSTDYNPSLKSRISITRDTSKNQYYLQLNSVTAEDTATYYCARYFGSSYAMDHWGQGTSVTVSS VL: DIQMTQSPASLSASVGETVTITCRASGNIHNYLAWYQQKQGKSPQLLVYTAKTLAEGVPSRFSGSGSGTQFSLKINSLQPEDFGSYYCQHFWSTPWTFGGGTKLEIK	–	4.8 nM	0.0053 s⁻¹	1.09e+06 M⁻¹ s⁻¹
human anti-FHbp Fab 5B (Fab, V domains shown) VH: EVQLLESGGGLVQPGGSLRLSCAASGYTFGSYAMTWVRQGPGKGLEWVSTILGSGADTYYADSVKGRFTISRDNSRNTLFMQLSSLRAEDTAVYYCAKLGYYDTWGQGTLVTVSS VL: EIVLTQSPATLSLSPGERATLSCRASQSIASYLYWYQQKPGQAPRLLIFDASNRATGTPARFSGSGSGTDFTLTISSLEPEDFAVYYCQQRNNWPRALTFGGGTKVEIK	–	10.6 nM	0.0041 s⁻¹	390000 M⁻¹ s⁻¹
